Each sequence was assayed on F1*sub RNA substrate (template-directed ligation) (assay: fraction ligated after 30 min (ligated reads / total reads); higher = more ligase activity; sequences stand for … in GAGACCGCAACTGAAAAGTTGT…AGTTCTGCACGTAGAAGCAAAAGGC). Conditions: 42 °C.
In short: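 Ribozyme variants were transcribed with T7 from PCR-amplified oligo-pool templates and gel-purified. Ligated and unligated bands, separated on gel, were reverse transcribed with barcoded primers and sequenced on a MiSeq, with core bases filtered at quality ≥20. Fraction ligated per variant was computed as ligated reads divided by total reads.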

Sequence | fraction ligated
TTCACTTGTCGTAAGACACTTTGGTGGTTGA [3d498] | 0.014
TATCACTGTCGTAAGACACTTGGTGGGTTGA [3d1442] | 0.692
TATCACTGTCTAAGACCTTTGGATGGGTTGA [3d1363] | 0.795
TATCACTTTCGTAAGACACTTTGGTGGGTTG [3d1577] | 0.0247
TATCCTTGTCGTAAGACACTTTGGTGGGTTG [3d1113] | 0.0948
TATACTTGTCGTAAGACACTTTGGATGGGTTG [2d89] | 0.733
TATCACTTGCGTAAGACACTTTGGATGGTTGA [2d176] | 0.324
TATCACTTGTCGTAAGACATTGGATGGTTGA [3d2211] | 0.0757
TATCCTTTCGTAAGACATTTGGATGGGTTGA [3d976] | 0.787
TTCACTTGTGTAAGAACTTTGGATGGGTTGA [3d392] | 0.694
TATCACTTGTCTAAGAACTTTGGATGGGTTG [3d1863] | 0.782
TATCATGTCGTAAGACACTTTGGATGGGTTG [3d1139] | 0.784
TATCACTGTGTAAGACACTTTGATGGGTTGA [3d1352] | 0.355
TTCACTGTCGTAAGACCTTTGGATGGGTTGA [3d346] | 0.795
TATCACTTGTCGAGACACTTTGGATGGTTGA [3d1912] | 0.166
TATCACTTGTGTAAACACTTTGGTGGGTTGA [3d1749] | 0.0929
TATCACTGCGTAAGACACTTTGGAGGGTTGA [3d1339] | 0.0829
TATCACTTGTCGAGACACTTTGGATGGGTTA [3d1913] | 0.765
TTCACTTGTCGTAAGACCTTTGGATGGTTGA [3d474] | 0.523
ATCACTTGTCGTAAGACACTTTGGTGGGTTA [3d268] | 0.00829
TATCCTTGTCGTAAGACCTTGGATGGGTTGA [3d1083] | 0.756
TATCCTGTCGTAAGAACTTTGGATGGGTTGA [3d958] | 0.803
TATACTTGTCGAAGACACTTTGGATGGGTTA [3d868] | 0.0412

Sequence | fraction ligated
TATCACTTGTGAAGACACTTTGATGGGTTGA [3d1725] | 0.818
TACACTTGTCGTAAGACACTTTGATGGGTTG [3d726] | 0.0988
TATCACTTGTGTAACACTTTGGATGGGTTGA [3d1732] | 0.841
TTCACTTTCTAAGACACTTTGGATGGGTTGA [3d356] | 0.36
TATCACTTGTCGTAAGACCTTTGATGGTTGA [3d2193] | 0.0397
TATCACTTGTGTAAGACACTTTGGATGGTTG [3d1807] | 0.115
TATCACTTGTGTAAGACTTTGGATGGGTTGA [3d1754] | 0.868
TATACTTGTCGTAAGACACTTTGGATGGTTA [3d945] | 0.0396
TATCACTTGTCGTAAGACATTGGATGGGTTA [3d2212] | 0.78
TAACTTGTCTAAGACACTTTGGATGGGTTGA [3d513] | 0.123
TATCCTTGCTAAGACACTTTGGATGGGTTGA [3d985] | 0.764
TACCTTGTCTAAGACACTTTGGATGGGTTGA [3d532] | 0.685
TATCACTTGTCGTAAGACACTTGGGGGTTGA [3d2244] | 0.0227
TTCCTTGTCGAAGACACTTTGGATGGGTTGA [3d303] | 0.796
TATCCTTGTCGTAAAACTTTGGATGGGTTGA [3d1055] | 0.792
ATCACTTGTCGTAAGACACTTGGTGGGTTGA [3d255] | 0.00771
TTACTTGTCGTAAGACACTTTGGAGGGTTGA [3d294] | 0.125
TACACTTGTGAAGACACTTTGGATGGGTTGA [3d618] | 0.345
TTCACTTTCGTAAGAACTTTGGATGGGTTGA [3d361] | 0.832
TATCATTGTCGTAAGACCTTTGGATGGTTGA [3d1259] | 0.493
TATCACTTGTCGTAAGACACTTTGATGGGTTG [2d288] | 0.755
ACACTTGTCGAAGACACTTTGGATGGGTTGA [3d32] | 0.475
TACCTTGTCGTAAGACACTTTGGATGGGTTG [3d546] | 0.719

Sequence | fraction ligated
TATACTTGTCGTAACACTTTGGATGGGTTGA [3d871] | 0.27
TATCACTTGCGTAAGACACTGGATGGGTTGA [3d1681] | 0.799
TATCATTTGTAAGACACTTTGGATGGGTTGA [3d1140] | 0.803
TATCACTTGTCGTAAGCATTTGGATGGGTTG [3d2127] | 0.833
TATCACTTGTCGTAGACACTTTGGTGGGTTGA [2d229] | 0.287
TATCACTTGCGTAAGACACTTTGGATGGGTTG [2d178] | 0.825
TACATTGTCGAAGACACTTTGGATGGGTTGA [3d552] | 0.0671
TTCACTTGCGTAAGACACTTTGGATGGTTGA [3d384] | 0.17
TATCACTTGTCGTAGACACTTTGGATGGTTG [3d2056] | 0.452
TATCACTTGTCGAAGCACTTTGGATGGGTTA [3d1933] | 0.723
TATCACTTGTCGTAAGACACTTTGGGGGTTA [3d2271] | 0.0237
TATCACTGCTAAGACACTTTGGATGGGTTGA [3d1328] | 0.81
TATCACTTGTGTAAGACACTGGATGGGTTGA [3d1786] | 0.792
TATACTTGTCGTAAGACACTTTATGGGTTGA [3d932] | 0.0481
TATACTTGTCGTAAGACACTTGATGGGTTGA [3d926] | 0.765
TATACTTGTCGTAAGACACTTTGGATGGGTTGA [1d4] | 0.791
TATCACTGTCGTAAGACCTTTGGATGGGTTG [3d1432] | 0.835
TACACTTTCTAAGACACTTTGGATGGGTTGA [3d586] | 0.0445
TATCACTTGCGTAAGACATTTGGATGGTTGA [3d1678] | 0.16
TATCACTTGTCTAGACCTTTGGATGGGTTGA [3d1827] | 0.737
TATCACTTGTCGTAAACACTTGGATGGGTTA [3d2086] | 0.492
TATCACTTGTCTAAGACACTTTGGTGGGTTA [3d1893] | 0.104
TATCACTTTCGTAGACACTTTGATGGGTTGA [3d1513] | 0.783

Sequence | fraction ligated
TATCATTGTCTAGACACTTTGGATGGGTTGA [3d1188] | 0.765
TACACTTGTCGTAAGACATTTGATGGGTTGA [3d708] | 0.0186
TATCACTTGTCTAAACACTTTGGATGGTTGA [3d1843] | 0.288
TTCACTTGTCGTAAGACACTTGGATGGGTTGA [2d40] | 0.656
TATCATTGTCGTAAACATTTGGATGGGTTGA [3d1229] | 0.798
TTCACTTGTCTAAGACACTTTGGATGGGTTGA [2d32] | 0.768
TATCACTGTCGTAAGACACTTGGAGGGTTGA [3d1443] | 0.0736
TATCACTGGTAAGACACTTTGGATGGGTTGA [3d1327] | 0.828
ATCACTTGCGTAAGACACTTTGGTGGGTTGA [3d151] | 0.0301
TACATTTCGTAAGACACTTTGGATGGGTTGA [3d548] | 0.0271
TATCACTGCGTAAGACACTTTGGATGGGTTA [3d1341] | 0.803
TACACTGTCGTAAGACATTTGGATGGGTTGA [3d577] | 0.617
TTCCTTGTCGTAAGACACTTTGGATGGGTTGA [2d26] | 0.778
TACACTTGTCGTAAGACCTTTGGAGGGTTGA [3d703] | 0.0299
TATCACTTGTCGTAAGACACTTGATGGGTTGA [2d277] | 0.662
TATCACTTTCGTAGACACTTTGGAGGGTTGA [3d1515] | 0.0412
TTCACTTGTCGTAAGACACTTTGGGGGTTGA [3d497] | 0.0262
TATCACTTGTCGTAAGAACTTTGGATGGTTG [3d2180] | 0.0734
TATCCTTGTCTAAGACACTTGGATGGGTTGA [3d1022] | 0.764
ATCACTTGTCGTAAGACCTTTGGATGGGTTG [3d245] | 0.706
TATCACTTGTCGTACACTTTGGATGGGTTGA [3d1981] | 0.797
TATCACTTGCTAAGACACTTTGGAGGGTTGA [3d1609] | 0.13
TATCACTTGTCGTAAGCACTTTGGAGGGTTGA [2d250] | 0.157

Sequence | fraction ligated
TATCACTTGTCGAAACCTTTGGATGGGTTGA [3d1916] | 0.78
TATCACTTTCGTAAGACACTTTATGGGTTGA [3d1568] | 0.0429
TATCACTTGCGTAAGACCTTGGATGGGTTGA [3d1667] | 0.797
TATCACTTTCTAAGACACTTTGGATGGTTGA [3d1490] | 0.114
ATCCTTGCGTAAGACACTTTGGATGGGTTGA [3d69] | 0.768
TATCACTTGCGTAAAACTTTGGATGGGTTGA [3d1639] | 0.858
TACACTGTCGTAAGACACTTTGGATGGGTTA [3d583] | 0.069
TATCACTTGTCGTAAGACACTTTGGTGGGTT [3d2275] | 0.011
TATCACTTGTCGTAAGACATTTATGGGTTGA [3d2214] | 0.0203
TATCACTGTCGTAAGCACTTGGATGGGTTGA [3d1411] | 0.745
TACCTTGTCGTAAGACACTTTGATGGGTTGA [3d541] | 0.304
TATCACTTGTCGTAGAACTTTGGATGGGTTGA [2d224] | 0.864
ATCACTTGTCTAGACACTTTGGATGGGTTGA [3d172] | 0.734
TATCACTTGTCGAAGACACTTTGATGGGTTA [3d1968] | 0.15
TATCTTGTCGTAAACACTTTGGATGGGTTGA [3d746] | 0.76
TATCATGTCGTAGACACTTTGGATGGGTTGA [3d1127] | 0.817
TATCACTTGTCGAAGACATTTGGATGGTTGA [3d1954] | 0.133
TATCACTTGCGTAAGACTTTGGATGGGTTGA [3d1649] | 0.849
TATCACTTTCGTAAGACATTTGGATGGTTGA [3d1558] | 0.286
ATACTTGTCGTAAGACACTTTGGTGGGTTGA [3d62] | 0.0395
